Target: PRKAR2A, regulatory subunit of protein kinase A (NanoBiT positive control) (UniProt P13861)
Assay: split reporter

Sequence of PRKAR2A, regulatory subunit of protein kinase A (NanoBiT positive control) (P13861 whole entry): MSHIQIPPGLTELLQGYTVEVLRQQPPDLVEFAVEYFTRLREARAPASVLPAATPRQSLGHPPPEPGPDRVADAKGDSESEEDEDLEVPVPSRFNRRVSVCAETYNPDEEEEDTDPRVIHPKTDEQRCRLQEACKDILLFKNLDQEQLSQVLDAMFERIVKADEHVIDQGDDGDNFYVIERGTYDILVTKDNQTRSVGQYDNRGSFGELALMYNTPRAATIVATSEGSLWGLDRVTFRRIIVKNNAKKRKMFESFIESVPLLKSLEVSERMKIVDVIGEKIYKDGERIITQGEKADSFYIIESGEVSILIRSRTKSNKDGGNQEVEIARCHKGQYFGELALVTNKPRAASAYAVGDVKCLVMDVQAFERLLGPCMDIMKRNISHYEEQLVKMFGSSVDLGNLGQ

PRKACA, catalytic subunit of protein kinase A (NanoBiT positive control) (from UniProt P17612 1-351) (natural protein)
nanoluciferase activity (RLU): 800000 RLU

Source: paper PMC9938795
